Source: patent US12351834B2, “Compositions and methods for the treatment of ornithine transcarbamylase deficiency” (Arcturus Therapeutics, Inc., priority 2020, dated 2025)

Columns and labels:
Format in all cases: in vivo, mouse
Spf/ash mice [1] = assay: Urinary orotate levels in Spf/ash mice; details: 3 mg/kg IV, lipid-formulated
Procedure: Spf/ash mice received an IV injection with either PBS or lipid-formulated OTC-mRNA construct 1799.7 (5MeOU chemistry) at three different doses: 0.3 mg/kg, 1 mg/kg and 3 mg/kg. Urinary orotate levels were determined in untreated wild-type (WT) and both untreated and treated Spf/ash mice. A urinary orotate time course was performed in Spf/ash and WT mice, and urinary orotate levels were measured at each timepoint. The results can be seen in FIG. 12. Urinary orotate was normalized to creatinine, which is represented in the graph on the y-axis throughout the time course and served as a proof-of-concept of functional restoration of OTC activity post-injection.
Spf/ash mice received an IV injection with either PBS or lipid-formulated (as described in Example 1) OTC-mRNA at 1 mg/kg and 3 mg/kg. WT mice were included as an internal control. Urinary orotate levels were measured at 0, 1, 3, 7 and 14 days, and levels were normalized to creatinine (FIG. 16).

Spf/ash mice [2] = assay: PK/PD analysis of human OTC expression and urinary orotate in Spf/ash mice; details: 1 mg/kg and 3 mg/kg IV, 96 hours post dose
Procedure: Spf/ash mice received an IV injection with either PBS or certain lipid-formulated OTC-mRNAs from Table 5 at 1 mg/kg and 3 mg/kg using two different uridine chemistries (N1MPU and 5MeOU). WT mice were used as internal controls. Human-specific OTC levels were measured by MRM, and urinary orotate was determined in each sample and normalized to creatinine.

Spf/ash mice [3] = assay: Survival of Spf/ash mice on a high protein diet; details: 0.3, 1 and 3 mg/kg IV on days 0, 7, 14, 21, 28
Procedure: Spf/ash mice received an IV injection with either PBS or lipid-formulated OTC-mRNA (1799.7) at three doses: 0.3 mg/kg, 1 mg/kg and 3 mg/kg. Mice were fed a high protein diet from day 0 to the end of the study. Treated animals were injected intravenously on days 0, 7, 14, 21 and 28 (indicated by the arrows in the chart in FIG. 17). Survival rates were determined every week. The plot in FIG. 17 summarizes the entire study timeline and the survival rates observed for the different groups.
The pharmacology of the OTC mRNA lipid formulations was investigated in studies that elucidated their efficacy and potential mechanism of action in a series of studies in the hemizygous male Spf/ash mouse model. […] The hypomorphic Spf/ash mouse shares similar biochemical features with OTCD patients, including elevated concentrations of urinary orotic acid (orotate), blood glutamine, and decreased concentrations of blood citrulline and arginine. The hemizygous male Spf/ash mice used in the pharmacology studies were derived by crossing B6EiC3Sn a/A-Otcspfash/J Het mice x B6EiC3SnF1/J mice as homozygous mice are not viable. […]
To study the effect of different ionizable cationic lipids on survival rate, Spf/ash mice received an IV injection with either PBS or one of three different lipid-formulated OTC-mRNA (1799.7) compositions. […] Survival rates were determined daily. […]

B1: 1799.7 (nucleic acid)
chain: ATGCTGTTCAACCTGCGCATCCTGCTGAACAACGCCGCCTTCCGCAACGGCCACAACTTCATGGTGCGCAACTTCCGCTGCGGCCAGCCCCTGCAGAACAAGGTGCAGCTGAAGGGCCGCGACCTGCTGACCCTGAAGAACTTCACCGGCGAGGAGATCAAGTACATGCTGTGGCTGAGCGCCGACCTGAAGTTCCGCATCAAGCAGAAGGGCGAGTACCTGCCCCTGCTGCAGGGCAAGAGCCTGGGCATGATCTTCGAGAAGCGCAGCACCCGCACCCGCCTGAGCACCGAGACAGGCTTCGCCCTGCTGGGCGGCCACCCCTGCTTCCTGACCACCCAGGACATCCACCTGGGCGTGAACGAGAGCCTGACCGACACCGCCCGCGTGCTGAGCAGCATGGCCGACGCCGTGCTGGCCCGCGTGTACAAGCAGAGCGACCTGGACACCCTGGCCAAGGAGGCCAGCATCCCCATCATCAACGGCCTGAGCGACCTGTACCACCCCATCCAGATCCTGGCCGACTACCTGACCCTGCAGGAGCACTACAGCAGCCTGAAGGGCCTGACCCTGAGCTGGATCGGCGACGGCAACAACATCCTGCACAGCATCATGATGAGCGCCGCCAAGTTCGGCATGCACCTGCAGGCCGCCACCCCCAAGGGCTACGAGCCCGACGCCAGCGTGACCAAGCTGGCCGAGCAGTACGCCAAGGAGAACGGCACCAAGCTGCTGCTGACCAACGACCCCCTGGAGGCCGCCCACGGCGGCAACGTGCTGATCACCGACACCTGGATCAGCATGGGCCAGGAGGAGGAGAAGAAGAAGCGCCTGCAGGCCTTCCAGGGCTACCAGGTGACCATGAAGACCGCCAAGGTGGCCGCCAGCGACTGGACCTTCCTGCACTGCCTGCCCCGCAAGCCCGAGGAGGTGGACGACGAGGTGTTCTACAGCCCCCGCAGCCTGGTGTTCCCCGAGGCCGAGAACCGCAAGTGGACCATCATGGCCGTGATGGTGAGCCTGCTGACCGACTACAGCCCCCAGCTGCAGAAGCCCAAGTTCTGA
modifications: 100% 5-methoxyuridine; lipid formulation
**Q.** B1 was tested. Which “urinary orotate levels in treated Spf/ash mice vs WT mice” value (Spf/ash mice [1]) did it give?
**A.** comparable to urinary orotate levels in WT mice

**Q.** What about the “duration of sustainable reduction of urinary orotate levels” value (Spf/ash mice [1]; normalized to creatinine) of the same molecule?
**A.** up to 14 days

**Q.** And the “PK/PD correlation between hOTC protein expression and reduction of urinary orotate” value (Spf/ash mice [2])?
**A.** high PK/PD correlation

**Q.** What about the “dose dependence of survival rate” value (Spf/ash mice [3]) of the same molecule?
**A.** dose-dependent

**Q.** What about the “survival during hyperammonemic crisis vs PBS” value (Spf/ash mice [3]) of the same molecule?
**A.** greater survival
